The text below walks through data of patent publication US6410317, “Recombinase-based methods for producing expression vectors and compositions for use in practicing the same” (Clontech Laboratories, Inc.).

In data set [1] the target is T1, Cre recombinase (UniProt P06956 P06956:1-343). In words: acceptor loxP site; same buffer, 37 C 15 min; loxP of this acceptor PCR-transferred to 10 acceptors, 27 of 30 clones correct with pDNR-luc. The note with it: chain copies: 4 per synapse (inferred); SfiI and BglII overhangs before cloning; assayed within plasmid.
Data set [2] has as its target T1, Cre recombinase. Briefly: in vitro recombination pD3 x pCMVmycloxP, 50 mM Tris-HCl pH 7.5, 30 mM NaCl, 10 mM MgCl2, BSA, 37 C 15 min; chloramphenicol selection in E. coli. Particulars: chain copies: 4 per synapse (inferred); AatII and EcoRI overhangs before cloning; assayed within plasmid. The protocol:
(§1) To achieve generation of the expression vector from the donor and acceptor, the following were mixed together on ice in a standard eppendorf microcentrifuge tube: 0.5 µg pCMVmycloxP (representing the Acceptor vector); 0.5 µg pD3 (representing the Donor vector); 2 µl 10×Cre reaction buffer (10×Cre reaction buffer contains: 500 mM Tris-HCl (pH 7.5) and 300 mM NaCl); 10 mM MgCl_2, 1 µl 20×BSA (20×BSA contains 2 mg/ml BSA (NEB)); 25 Units Cre recombinase (Novagen); H_2O to 20 µl total.
(§2) Once the reagents were mixed, the reaction was incubated for 15 mins at 37° C. Following the reaction, the mixture was heated to 65° C. for 10 mins to inactivate the Cre enzyme. Finally, an aliquot of the reaction mix was transformed to E. coli using standard methods (e.g., electroporation), and the transformed bacteria selected on LB plates containing 60 µg/ml Chloramphenicol.

Data set [3] has as its target T1, Cre recombinase. In words: same reaction, second donor loxP site. The note with it: chain copies: 4 per synapse (inferred); EcoRI and SapI overhangs before cloning; assayed within plasmid. As to the method:
as §1, §2

T1 sequence (P06956 whole entry, one chain of several): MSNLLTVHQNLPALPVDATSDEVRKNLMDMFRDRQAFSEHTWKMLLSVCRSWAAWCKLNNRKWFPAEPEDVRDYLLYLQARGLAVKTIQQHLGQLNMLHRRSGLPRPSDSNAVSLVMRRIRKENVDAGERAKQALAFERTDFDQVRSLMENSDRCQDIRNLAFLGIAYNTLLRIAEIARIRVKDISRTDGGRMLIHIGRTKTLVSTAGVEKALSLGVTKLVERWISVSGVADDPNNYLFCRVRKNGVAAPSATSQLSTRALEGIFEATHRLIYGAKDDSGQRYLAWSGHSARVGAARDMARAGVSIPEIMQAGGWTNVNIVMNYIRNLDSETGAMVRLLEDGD

B1: loxP site of acceptor pCMVmycloxP (LoxPMyc-up/down) (dsDNA)
DNA 1: AGATAACTTCGTATAGCATACATTATACGAAGTTATA
DNA 2: GATCTATAACTTCGTATAATGTATGCTATACGAAGTTATCTCCA
On to B1, for which the binding result in data set [1] is “binds”.

B2: loxP site 1 of donor pD3 (LoxP1-up/down) (dsDNA)
DNA 1: CGCGGCCGCATAACTTCGTATAGCATACATTATACGAAGTTATCAGTCGACG
DNA 2: AATTCGTCGACTGATAACTTCGTATAATGTATGCTATACGAAGTTATGCGGCCGCGACGT
Consider B2, for which, in data set [2], the binding result is recorded as “binds”.

B3: loxP site 2 of donor pD3 (LoxP2-up/down) (dsDNA)
DNA 1: AATTCGGATCCATAACTTCGTATAGCATACATTATACGAAGTTATGCGGCC
DNA 2: AGCGGCCGCATAACTTCGTATAATGTATGCTATACGAAGTTATGGATCCG
Take B3: the binding result in data set [3] is recorded as “binds”.
